The source of these data is paper PMC10995199, “Architecture and regulation of filamentous human cystathionine beta-synthase” (Nature Communications, 2024).

This experiment deals with human cystathionine beta-synthase regulatory domain alone with the loop deletion (CBS^RDΔ516–525) (human) (UniProt P35520). Nature of the experiment: SEC + native gel or EMSA; control constructs in analytical Superose 6 gel filtration and clear-native and blue-native PAGE (Supplementary Fig. 2); self-association. (A gel shift assay detects complexes by their altered migration in electrophoresis.)

With “human cystathionine beta-synthase regulatory domain alone with the loop deletion (CBS^RDΔ516–525) (from UniProt P35520 406-515) (domain or fragment)”, the stoichiometry N (as a rule, the number of molecules, sites or subunits per partner or assembly) was 2.
